Measured values taken from paper PMC11344278, “Structural and biochemical characterization of the C‐terminal region of the human RTEL1 helicase” (Protein Science : A Publication of the Protein Society, 2024).

T1: RTEL1 CT-L (entire C-terminal region) (Homo sapiens) (UniProt Q9NZ71)
T1 sequence (Q9NZ71 whole entry, looked up): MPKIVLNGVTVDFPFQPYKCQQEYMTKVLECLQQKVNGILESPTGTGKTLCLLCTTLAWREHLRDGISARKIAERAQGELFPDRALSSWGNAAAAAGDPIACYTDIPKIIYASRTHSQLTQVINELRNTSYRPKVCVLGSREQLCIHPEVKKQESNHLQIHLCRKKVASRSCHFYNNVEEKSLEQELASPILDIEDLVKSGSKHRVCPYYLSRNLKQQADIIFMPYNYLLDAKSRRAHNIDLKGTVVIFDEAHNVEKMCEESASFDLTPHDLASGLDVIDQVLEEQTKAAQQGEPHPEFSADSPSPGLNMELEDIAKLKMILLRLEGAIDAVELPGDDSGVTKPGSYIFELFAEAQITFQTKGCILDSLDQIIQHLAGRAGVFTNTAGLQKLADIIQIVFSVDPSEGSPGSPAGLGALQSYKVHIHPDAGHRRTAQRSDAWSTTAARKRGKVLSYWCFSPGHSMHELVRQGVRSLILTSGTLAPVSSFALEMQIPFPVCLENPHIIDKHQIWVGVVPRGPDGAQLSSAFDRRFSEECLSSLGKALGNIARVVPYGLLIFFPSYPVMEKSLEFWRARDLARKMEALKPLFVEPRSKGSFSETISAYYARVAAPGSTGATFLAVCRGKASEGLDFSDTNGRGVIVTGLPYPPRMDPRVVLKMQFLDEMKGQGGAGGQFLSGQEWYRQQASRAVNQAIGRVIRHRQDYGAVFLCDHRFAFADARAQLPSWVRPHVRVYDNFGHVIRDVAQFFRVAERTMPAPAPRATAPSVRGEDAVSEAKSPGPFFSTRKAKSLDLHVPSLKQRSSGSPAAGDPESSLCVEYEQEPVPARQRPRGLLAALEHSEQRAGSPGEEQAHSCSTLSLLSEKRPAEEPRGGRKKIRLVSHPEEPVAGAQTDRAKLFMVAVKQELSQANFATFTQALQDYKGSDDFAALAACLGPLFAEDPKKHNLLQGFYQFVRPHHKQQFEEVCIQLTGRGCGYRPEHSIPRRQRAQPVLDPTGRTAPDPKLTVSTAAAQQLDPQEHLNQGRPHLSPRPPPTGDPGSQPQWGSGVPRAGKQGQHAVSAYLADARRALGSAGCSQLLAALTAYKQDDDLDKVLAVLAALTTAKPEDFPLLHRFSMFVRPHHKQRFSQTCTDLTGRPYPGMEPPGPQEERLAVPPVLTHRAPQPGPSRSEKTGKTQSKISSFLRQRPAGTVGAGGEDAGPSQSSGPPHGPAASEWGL

T2: RTEL1 HHD1-2 (Homo sapiens) (UniProt Q9NZ71)
T2 sequence: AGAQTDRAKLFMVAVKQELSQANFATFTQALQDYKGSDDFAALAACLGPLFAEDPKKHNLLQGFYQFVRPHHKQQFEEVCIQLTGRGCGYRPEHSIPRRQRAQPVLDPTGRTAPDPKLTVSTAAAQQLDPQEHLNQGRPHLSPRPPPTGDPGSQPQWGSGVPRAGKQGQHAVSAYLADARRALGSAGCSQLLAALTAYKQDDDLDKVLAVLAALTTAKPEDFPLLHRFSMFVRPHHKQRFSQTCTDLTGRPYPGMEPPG

T3: RTEL1 HHD2 (Homo sapiens, UniProt Q9NZ71 1053-1147)
T3 sequence: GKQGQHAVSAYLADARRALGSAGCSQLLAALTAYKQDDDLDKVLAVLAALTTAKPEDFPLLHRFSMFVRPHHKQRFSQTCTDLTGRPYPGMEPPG

B1: DNA fork (D1L:D3L) (dsDNA)
DNA 1: CTACTACCCCCACCCTCACAACCTTTTTTTTTTTTTTT
DNA 2: TTTTTTTTTTTTTTTGGTTGTGAGGGTGGGGGTAGTAG
B2: RNA fork (R1L:R3L) (dsRNA)
RNA 1: CUACCCCCACCCUCACAACCUUUUUUUUUUUUUUU
RNA 2: UUUUUUUUUUUUUUUGGUUGUGAGGGUGGGGGUA

Legend:
[1] = biological target: T1, RTEL1 CT-L (entire C-terminal region) (Homo sapiens); test: EMSA; conditions: 0.5 mM Mg2+, 20 mM Tris pH 7.5, 50 mM KCl, 0.5 mM MgCl2, 10% glycerol, 0.1% Igepal, 10 nM substrate, EMSA at room temperature 15 min (0-160 nM protein), FA at 25 C …
[2] = biological target: T2, RTEL1 HHD1-2 (Homo sapiens); test: fluorescence anisotropy; conditions: 0.5 mM Mg2+; 20 mM Tris pH 7.5, 50 mM KCl, 0.5 mM MgCl2, 10% glycerol, 0.1% Igepal, 10 nM substrate; EMSA at room temperature 15 min (0-160 nM protein), FA at 25 C …
[3] = biological target: T4, human PCNA (Proliferating Cell Nuclear Antigen) (human, UniProt P12004 1-261, uniformly 2H,13C,15N labelled (for NMR experiments)); test: ITC; 16.8 uM PCNA in the cell, 282 uM PIP1 peptide in the syringe; 35 °C; PBS pH 7.0, 1 mM TCEP; fitted to a 1:1 binding model (one set of identical sites); conditions: both partners purified
T4 construct: 3-residue N-terminal extension left after HRV 3C cleavage, preceding the native initial methionine; human PCNA, UniProt P12004, from the native initial methionine; The methods describe only the isotopically labelled PCNA made for NMR; not shown: His6, N-terminal, cleaved
T4 sequence (P12004 other isoform, or with tags, fused parts or gaps): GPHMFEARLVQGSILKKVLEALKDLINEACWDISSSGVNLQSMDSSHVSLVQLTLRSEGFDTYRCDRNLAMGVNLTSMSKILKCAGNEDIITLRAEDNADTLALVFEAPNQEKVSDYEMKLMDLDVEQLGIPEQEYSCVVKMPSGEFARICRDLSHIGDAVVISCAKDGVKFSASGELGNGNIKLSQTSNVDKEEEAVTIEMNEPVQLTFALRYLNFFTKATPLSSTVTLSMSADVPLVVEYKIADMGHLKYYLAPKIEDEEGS

RTEL1 HHD2 = biological target: T3, RTEL1 HHD2; test: fluorescence anisotropy; 0.5 mM Mg2+; 20 mM Tris pH 7.5, 50 mM KCl, 0.5 mM MgCl2, 10% glycerol, 0.1% Igepal, 10 nM substrate; EMSA at room temperature 15 min (0-160 nM protein), FA at 25 C (0-2500 nM protein); Hill-slope fit; conditions: protein: recombinant, tags: N-terminal 6His-Trx removed by TEV

Molecule | Kd [1] | Kd [2] | other results
CTACTACCCCCACCCTCACAACC (double strand) [dsDNA (D1B:D3B)] | 63 nM | – | –
CTACTACCCCCACCCTCACAACCTTTTTTTTTTTTTTT / TTTTTTTTTTTTTTTGGTTGTGAGGGTGGGGGTAGTAG [DNA fork (D1L:D3L)] | 43 nM | 155 nM | –
CTACTACCCCCACCCTCACAACCTTTTTTTTTTTTTTT / UUUUUUUUUUUUUUUGGUUGUGAGGGUGGGGGUA [DNA/RNA fork (D1L:R3L)] | 52 nM | – | –
CTACTACCCCCACCCTCACAACCTTTTTTTTTTTTTTT [ssDNA] | 40 nM | 247 nM | –
CUACCCCCACCCUCACAACCUUUUUUUUUUUUUUU / UUUUUUUUUUUUUUUGGUUGUGAGGGUGGGGGUA [RNA fork (R1L:R3L)] | 51 nM | 273 nM | –
CUACCCCCACCCUCACAACCUUUUUUUUUUUUUUU [ssRNA] | 46 nM | 192 nM | –
GTACCCGGGGATCCTCTAGAGTCGACCTGCAGGCATGCAAGCTTGGCACTGGCCGTCGTTTTACAAC / GTTGTAAAACGACGGCCAGTGCCTTTTCCCAGCCTCAATCTCATCACTCTAGAGGATCCCCGGGTAC / GCTTGCATGCCTGCAGGCCAGCCTCAATCTCATC [D-loop (D4:D9:D11)] | 11 nM | 327 nM | –
GTACCCGGGGATCCTCTAGAGTCGACCTGCAGGCATGCAAGCTTGGCACTGGCCGTCGTTTTACAAC / GTTGTAAAACGACGGCCAGTGCCTTTTCCCAGCCTCAATCTCATCACTCTAGAGGATCCCCGGGTAC / GCUUGCAUGCCUGCAGGCCAGCCUCAAUCUCAUCUUUUU [R-loop (R4:D9:D11)] | 10 nM | 160 nM | –
GTACCCGGGGATCCTCTAGAGTCGACCTGCAGGCATGCAAGCTTGGCACTGGCCGTCGTTTTACAAC / GTTGTAAAACGACGGCCAGTGCCTTTTCCCAGCCTCAATCTCATCACTCTAGAGGATCCCCGGGTAC [Bubble (D9:D11)] | 27 nM | – | –
TGAGGGTGGGTAGGGTGGGTAA [1XAV c-Myc promoter G4] | – | – | Kd ([1]; K+): 57 nM
TTAGGGTTAGGGTTAGGGTTAGGGTT [2JPZ telomeric G4] | – | – | Kd ([1]; K+): 26 nM
UUAGGGUUAGGGUUAGGGUUAGGG [TERRA G4] | – | 38 nM | Kd ([1]; K+): 10 nM
QSKISSFL [RTEL1 PIP1 peptide (canonical PIP-box of human RTEL1)] | – | – | Kd [3]: 53300 ± 7200 nM
B1 | – | – | Kd (RTEL1 HHD2; label: 5' 6-FAM on strand 1, fork: 23 bp duplex, T15 arms (3' on strand 1, 5' on strand 2)): 254 ± 52 nM
B2 | – | – | Kd (RTEL1 HHD2; label: 5' 6-FAM on strand 1, fork with U15 arms (3' on strand 1, 5' on strand 2), end as printed not fully blunt): 512 ± 104 nM
UUAGGGUUAGGGUUAGGGUUAGGG (structured_RNA) [TERRA G4] | – | – | Kd (RTEL1 HHD2; label: 5' 6-FAM, G4): 489 ± 124 nM
